Experimental data as given in patent US20150266962A1 (Pfizer, published 2015).

Experiments:
[1] = biological target: T1, recombinant human IL-13 receptor alpha 2 (hIL-13-Rα2) (human, UniProt Q14627 27-343); assay: direct ELISA on coated recombinant hIL-13-Rα2
T1 construct: Recombinant soluble antigen coated on ELISA plates or used in Biacore; also called rec hIL-13Rα2; rhIL-13Rα2
T1 sequence (looked up): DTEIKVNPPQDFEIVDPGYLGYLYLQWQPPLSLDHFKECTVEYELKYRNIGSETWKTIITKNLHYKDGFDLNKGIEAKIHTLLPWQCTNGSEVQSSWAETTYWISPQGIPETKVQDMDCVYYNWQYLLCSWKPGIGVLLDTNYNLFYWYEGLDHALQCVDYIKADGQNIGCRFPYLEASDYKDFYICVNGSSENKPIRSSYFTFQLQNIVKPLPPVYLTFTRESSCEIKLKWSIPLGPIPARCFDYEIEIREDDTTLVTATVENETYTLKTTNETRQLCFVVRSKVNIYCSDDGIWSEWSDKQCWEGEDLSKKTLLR
Procedure: Humanized hu08 binding to recombinant hIL-13-Rα2 was evaluated by a standard direct ELISA. Recombinant hIL-13-Rα2 was coated onto a 96-well plate. Serially diluted chimeric antibodies or humanized antibodies in combinations of heavy and light chains of versions 1.0 and 1.1 e.g. hu08 v1.0 HC/1.0 LC, hu08 v1.0 HC/v1.1 LC, hu08 v1.1 HC/v1.0 LC, and hu08 v1.1 HC/v1.1 LC, were added to the plate and incubated at room temperature for 1-2 hours. The binding was detected by HRP conjugated goat anti-human Ig Kappa.

[2] = biological target: T1, recombinant human IL-13 receptor alpha …; assay: competition ELISA on coated recombinant hIL-13-Rα2, competitor biotin-ch08
Procedure: A competition ELISA was performed to assess whether hu08 1.0 and hu08 v1.1 compete with ch08 for IL-13-Rα2 binding. Recombinant hIL-13-Rα2 was coated onto 96-well plates at 50 ul of […] in PBS overnight at 4° C. Plates were then blocked and washed following standard ELISA protocol. A 3-fold serially diluted ch08, hu08 1.0 and hu08 v1.1, and negative control ch07 (2× final concentration) were mixed with biotinylated ch08 (2×EC₅₀). 50 μl of the antibody and biotin-ch08 mixture were added to the plate and incubated for 1 hour at room temperature. The amount of biotin-ch08 bound was detected by HRP conjugated streptavidin.

[3] = biological target: T1, recombinant human IL-13 receptor alpha …; assay: competition ELISA on hIL-13-Rα2, competitor biotinylated ch08
Procedure: The binding properties of the cysteine mutants to hIL-13-Rα2 were evaluated by a standard ELISA and a competition ELISA. […] This conclusion was confirmed by a competition ELISA with biotinylated ch08.

[4] = biological target: T1, recombinant human IL-13 receptor alpha …; assay: standard ELISA on hIL-13-Rα2 (given as ED50)
[5] = biological target: T1, recombinant human IL-13 receptor alpha …; assay: direct ELISA on rhIL-13Rα2 (given as ED50)
[6] = biological target: T1, recombinant human IL-13 receptor alpha …; assay: competition ELISA on plate (recombinant IL-13-Rα2), competitor biotinylated ch07

B1: humanized antibody hu08 v1.0 HC/v1.1 LC (antibody, IgG1, V domains shown)
VH: EVQLVESGGGLVQPGGSLRLSCAASGFTFSRNGMSWVRQAPGKGLEWVATVSSGGSYIYYADSVKGRFTISRDNAKNSLYLQMNSLRAEDTAVYYCARQGTTALATRFFDVWGQGTLVTVSS
VL: DIQMTQSPSSLSASVGDRVTITCKASQDVGTAVAWYQQIPGKAPKLLIYSASYRSTGVPDRFSGSGSGTDFSFIISSLQPEDFATYYCQHHYSAPWTFGGGTKVEIK
notes: hIgG1 constant region and hIgKappa constant region; also called hu08 v1.0/1.1
EC50 [1]: 0.143 nM
IC50 [2]: 2.14 nM

B2: humanized antibody hu08 v1.1 HC/v1.0 LC (antibody, IgG1, V domains shown)
VH: EVQLVESGGGLVQPGGSLRLSCAASGFTFSRNGMSWVRQTPDKRLEWVATVSSGGSYIYYADSVKGRFTISRDNAKNSLYLQMSSLRAEDTAVYYCARQGTTALATRFFDVWGQGTLVTVSS
VL: DIQMTQSPSSLSASVGDRVTITCKASQDVGTAVAWYQQKPGKAPKLLIYSASYRSTGVPSRFSGSGSGTDFTLTISSLQPEDFATYYCQHHYSAPWTFGGGTKVEIK
notes: hIgG1 constant region and hIgKappa constant region; also called hu08 v1.1/1.0
EC50 [1]: 0.163 nM
IC50 [2]: 2.56 nM

B3: hu08 with light chain mutation D185A (hu08MAC, unconjugated) (antibody)
heavy: not shown
light: DIQMTQSPSSLSASVGDRVTITCKASQDVGTAVAWYQQKPGKAPKLLIYSASYRSTGVPSRFSGSGSGTDFTLTISSLQPEDFATYYCQHHYSAPWTFGGGTKVEIKRTVAAPSVFIFPPSDEQLKSGTASVVCLLNNFYPREAKVQWKVDNALQSGNSQESVTEQDSKDSTYSLSSTLTLSKAAYEKHKVYACEVTHQGLSSPVTKSFNRGEC
notes: also called hu08/kD185A
IC50 [3]: 2.36 nM
EC50 [4]: 0.108 nM

B4: hu08v1.0/1.0-V422C/L443C (antibody)
heavy: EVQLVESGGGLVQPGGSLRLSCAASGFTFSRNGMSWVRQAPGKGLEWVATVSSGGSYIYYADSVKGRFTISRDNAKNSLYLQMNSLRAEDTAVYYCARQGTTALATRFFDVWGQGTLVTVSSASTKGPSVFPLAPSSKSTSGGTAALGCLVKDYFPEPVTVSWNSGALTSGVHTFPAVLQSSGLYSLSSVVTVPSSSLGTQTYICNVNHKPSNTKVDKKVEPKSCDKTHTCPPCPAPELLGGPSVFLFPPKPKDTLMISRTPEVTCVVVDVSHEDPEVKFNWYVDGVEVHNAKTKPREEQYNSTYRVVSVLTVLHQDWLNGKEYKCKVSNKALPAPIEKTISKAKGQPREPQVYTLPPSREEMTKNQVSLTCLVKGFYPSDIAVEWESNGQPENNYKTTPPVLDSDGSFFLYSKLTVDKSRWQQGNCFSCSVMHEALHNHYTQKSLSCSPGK
light: DIQMTQSPSSLSASVGDRVTITCKASQDVGTAVAWYQQKPGKAPKLLIYSASYRSTGVPSRFSGSGSGTDFTLTISSLQPEDFATYYCQHHYSAPWTFGGGTKVEIKRTVAAPSVFIFPPSDEQLKSGTASVVCLLNNFYPREAKVQWKVDNALQSGNSQESVTEQDSKDSTYSLSSTLTLSKADYEKHKVYACEVTHQGLSSPVTKSFNRGEC
notes: also called hu08/L443C/V422C; L443C/V422C
IC50 [3]: 2.17 nM
EC50 [4]: 0.09 nM

B5: hu08v1.0/1.0-K188C (antibody, human IgG1, kappa)
heavy: not shown
light: DIQMTQSPSSLSASVGDRVTITCKASQDVGTAVAWYQQKPGKAPKLLIYSASYRSTGVPSRFSGSGSGTDFTLTISSLQPEDFATYYCQHHYSAPWTFGGGTKVEIKRTVAAPSVFIFPPSDEQLKSGTASVVCLLNNFYPREAKVQWKVDNALQSGNSQESVTEQDSKDSTYSLSSTLTLSKADYECHKVYACEVTHQGLSSPVTKSFNRGEC
notes: also called hu08/kK188C; kK188C
IC50 [3]: 2.73 nM
EC50 [4]: 0.18 nM

B6: hu08v1.0/1.0-Q347C/A111C (antibody)
heavy: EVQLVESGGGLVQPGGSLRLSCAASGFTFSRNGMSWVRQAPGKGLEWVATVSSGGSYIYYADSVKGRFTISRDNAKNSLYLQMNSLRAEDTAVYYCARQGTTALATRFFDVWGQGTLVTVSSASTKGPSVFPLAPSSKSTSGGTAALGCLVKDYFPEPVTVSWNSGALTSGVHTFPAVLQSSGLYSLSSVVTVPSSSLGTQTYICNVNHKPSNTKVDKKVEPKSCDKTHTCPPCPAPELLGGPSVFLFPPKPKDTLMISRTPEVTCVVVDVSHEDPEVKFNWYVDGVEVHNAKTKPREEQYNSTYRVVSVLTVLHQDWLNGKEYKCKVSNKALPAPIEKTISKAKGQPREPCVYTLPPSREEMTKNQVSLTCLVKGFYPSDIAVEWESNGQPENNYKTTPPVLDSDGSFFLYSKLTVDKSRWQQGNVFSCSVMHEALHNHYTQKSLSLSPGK
light: DIQMTQSPSSLSASVGDRVTITCKASQDVGTAVAWYQQKPGKAPKLLIYSASYRSTGVPSRFSGSGSGTDFTLTISSLQPEDFATYYCQHHYSAPWTFGGGTKVEIKRTVACPSVFIFPPSDEQLKSGTASVVCLLNNFYPREAKVQWKVDNALQSGNSQESVTEQDSKDSTYSLSSTLTLSKADYEKHKVYACEVTHQGLSSPVTKSFNRGEC
notes: also called hu08/Q347C/kA111C; Q347C/kA111C
IC50 [3]: 2.44 nM
EC50 [4]: 0.1 nM

B7: hu08v1.0/1.0-A111C (antibody)
heavy: not shown
light: DIQMTQSPSSLSASVGDRVTITCKASQDVGTAVAWYQQKPGKAPKLLIYSASYRSTGVPSRFSGSGSGTDFTLTISSLQPEDFATYYCQHHYSAPWTFGGGTKVEIKRTVACPSVFIFPPSDEQLKSGTASVVCLLNNFYPREAKVQWKVDNALQSGNSQESVTEQDSKDSTYSLSSTLTLSKADYEKHKVYACEVTHQGLSSPVTKSFNRGEC
notes: also called hu08/kA111C; kA111C
IC50 [3]: 4.07 nM
EC50 [4]: 0.22 nM

B8: hu08v1.0/1.0-Q347C/K183C (antibody, human IgG1, kappa)
heavy: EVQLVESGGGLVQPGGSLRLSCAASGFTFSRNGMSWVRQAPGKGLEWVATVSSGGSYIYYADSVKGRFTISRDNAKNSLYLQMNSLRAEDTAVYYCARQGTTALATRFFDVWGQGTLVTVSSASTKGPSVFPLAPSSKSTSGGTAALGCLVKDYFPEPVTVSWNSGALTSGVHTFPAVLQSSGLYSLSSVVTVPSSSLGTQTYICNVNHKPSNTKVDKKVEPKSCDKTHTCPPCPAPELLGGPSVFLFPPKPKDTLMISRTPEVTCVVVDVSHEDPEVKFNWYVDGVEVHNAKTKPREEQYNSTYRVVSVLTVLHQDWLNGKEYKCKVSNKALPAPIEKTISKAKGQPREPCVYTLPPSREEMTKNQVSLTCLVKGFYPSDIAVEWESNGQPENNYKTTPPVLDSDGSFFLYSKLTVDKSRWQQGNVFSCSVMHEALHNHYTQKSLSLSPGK
light: DIQMTQSPSSLSASVGDRVTITCKASQDVGTAVAWYQQKPGKAPKLLIYSASYRSTGVPSRFSGSGSGTDFTLTISSLQPEDFATYYCQHHYSAPWTFGGGTKVEIKRTVAAPSVFIFPPSDEQLKSGTASVVCLLNNFYPREAKVQWKVDNALQSGNSQESVTEQDSKDSTYSLSSTLTLSCADYEKHKVYACEVTHQGLSSPVTKSFNRGEC
notes: also called hu08/Q347C/kK183C; Q347C/kK183C
IC50 [3]: 2.41 nM
EC50 [4]: 0.13 nM

B9: hu08v1.0/1.0-L443C/K183C (antibody)
heavy: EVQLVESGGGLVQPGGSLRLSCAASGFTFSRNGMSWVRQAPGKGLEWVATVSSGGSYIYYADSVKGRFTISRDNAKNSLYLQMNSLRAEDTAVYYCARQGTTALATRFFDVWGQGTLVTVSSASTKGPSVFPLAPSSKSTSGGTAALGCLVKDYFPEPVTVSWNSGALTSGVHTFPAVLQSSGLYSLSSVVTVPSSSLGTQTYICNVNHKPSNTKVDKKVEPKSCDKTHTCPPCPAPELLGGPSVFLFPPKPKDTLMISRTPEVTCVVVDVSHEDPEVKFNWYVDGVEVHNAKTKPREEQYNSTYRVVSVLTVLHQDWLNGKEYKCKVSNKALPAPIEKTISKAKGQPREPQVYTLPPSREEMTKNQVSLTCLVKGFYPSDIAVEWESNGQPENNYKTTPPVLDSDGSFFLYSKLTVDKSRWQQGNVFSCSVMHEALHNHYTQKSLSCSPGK
light: DIQMTQSPSSLSASVGDRVTITCKASQDVGTAVAWYQQKPGKAPKLLIYSASYRSTGVPSRFSGSGSGTDFTLTISSLQPEDFATYYCQHHYSAPWTFGGGTKVEIKRTVAAPSVFIFPPSDEQLKSGTASVVCLLNNFYPREAKVQWKVDNALQSGNSQESVTEQDSKDSTYSLSSTLTLSCADYEKHKVYACEVTHQGLSSPVTKSFNRGEC
notes: also called hu08/L443C/kK183C; L443C/kK183C
IC50 [3]: 2.45 nM
EC50 [4]: 0.11 nM

B10: hu08v1.0/1.0-L443C (antibody)
heavy: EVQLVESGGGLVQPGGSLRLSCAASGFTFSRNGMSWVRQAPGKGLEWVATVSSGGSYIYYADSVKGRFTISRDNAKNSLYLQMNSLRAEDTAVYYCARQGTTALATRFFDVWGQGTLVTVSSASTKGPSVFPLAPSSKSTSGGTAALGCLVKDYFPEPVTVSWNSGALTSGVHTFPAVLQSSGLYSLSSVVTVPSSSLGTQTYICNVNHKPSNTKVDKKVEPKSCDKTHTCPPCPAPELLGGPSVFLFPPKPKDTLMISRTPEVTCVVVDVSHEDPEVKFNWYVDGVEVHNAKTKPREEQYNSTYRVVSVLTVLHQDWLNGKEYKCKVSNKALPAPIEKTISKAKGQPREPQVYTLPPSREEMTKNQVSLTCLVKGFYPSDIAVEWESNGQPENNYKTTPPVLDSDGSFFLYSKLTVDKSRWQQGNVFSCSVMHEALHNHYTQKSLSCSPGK
light: DIQMTQSPSSLSASVGDRVTITCKASQDVGTAVAWYQQKPGKAPKLLIYSASYRSTGVPSRFSGSGSGTDFTLTISSLQPEDFATYYCQHHYSAPWTFGGGTKVEIKRTVAAPSVFIFPPSDEQLKSGTASVVCLLNNFYPREAKVQWKVDNALQSGNSQESVTEQDSKDSTYSLSSTLTLSKADYEKHKVYACEVTHQGLSSPVTKSFNRGEC
notes: also called hu08/L443C
IC50 [3]: 2.25 nM
EC50 [4]: 0.1 nM

B11: hu08v1.0/1.0-Q347C (antibody)
heavy: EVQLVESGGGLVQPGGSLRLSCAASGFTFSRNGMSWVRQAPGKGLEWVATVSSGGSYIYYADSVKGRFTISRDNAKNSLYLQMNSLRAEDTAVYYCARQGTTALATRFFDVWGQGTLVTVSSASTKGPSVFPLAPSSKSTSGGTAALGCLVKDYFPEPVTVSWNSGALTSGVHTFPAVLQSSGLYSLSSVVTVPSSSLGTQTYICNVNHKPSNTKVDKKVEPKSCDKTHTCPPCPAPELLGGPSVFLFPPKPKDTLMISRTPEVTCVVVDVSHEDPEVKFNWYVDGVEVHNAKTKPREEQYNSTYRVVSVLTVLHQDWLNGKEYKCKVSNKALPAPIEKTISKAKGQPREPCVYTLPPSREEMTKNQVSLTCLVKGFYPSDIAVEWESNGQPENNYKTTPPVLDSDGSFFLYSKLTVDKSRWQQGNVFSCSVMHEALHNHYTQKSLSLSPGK
light: DIQMTQSPSSLSASVGDRVTITCKASQDVGTAVAWYQQKPGKAPKLLIYSASYRSTGVPSRFSGSGSGTDFTLTISSLQPEDFATYYCQHHYSAPWTFGGGTKVEIKRTVAAPSVFIFPPSDEQLKSGTASVVCLLNNFYPREAKVQWKVDNALQSGNSQESVTEQDSKDSTYSLSSTLTLSKADYEKHKVYACEVTHQGLSSPVTKSFNRGEC
notes: also called hu08/Q347C
IC50 [3]: 2.07 nM
EC50 [4]: 0.1 nM

B12: hu08v1.0/1.0-K183C (antibody, human IgG1, kappa)
heavy: not shown
light: DIQMTQSPSSLSASVGDRVTITCKASQDVGTAVAWYQQKPGKAPKLLIYSASYRSTGVPSRFSGSGSGTDFTLTISSLQPEDFATYYCQHHYSAPWTFGGGTKVEIKRTVAAPSVFIFPPSDEQLKSGTASVVCLLNNFYPREAKVQWKVDNALQSGNSQESVTEQDSKDSTYSLSSTLTLSCADYEKHKVYACEVTHQGLSSPVTKSFNRGEC
notes: also called hu08/kK183C; kK183C
IC50 [3]: 2.47 nM
EC50 [4]: 0.11 nM

B13: hu08v1.0/1.0-K392C/L443C (antibody)
heavy: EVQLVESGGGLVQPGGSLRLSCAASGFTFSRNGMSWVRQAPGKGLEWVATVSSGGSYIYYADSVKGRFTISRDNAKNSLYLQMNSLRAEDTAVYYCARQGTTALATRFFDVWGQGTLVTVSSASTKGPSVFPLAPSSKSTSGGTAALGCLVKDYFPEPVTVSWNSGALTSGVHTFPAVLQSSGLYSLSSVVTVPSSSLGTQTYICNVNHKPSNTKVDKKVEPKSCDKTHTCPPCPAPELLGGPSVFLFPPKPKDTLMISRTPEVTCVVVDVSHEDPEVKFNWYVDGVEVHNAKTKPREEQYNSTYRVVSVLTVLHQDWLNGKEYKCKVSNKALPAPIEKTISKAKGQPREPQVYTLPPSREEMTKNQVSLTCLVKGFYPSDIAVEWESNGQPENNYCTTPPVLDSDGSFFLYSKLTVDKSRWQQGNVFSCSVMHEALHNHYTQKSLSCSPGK
light: DIQMTQSPSSLSASVGDRVTITCKASQDVGTAVAWYQQKPGKAPKLLIYSASYRSTGVPSRFSGSGSGTDFTLTISSLQPEDFATYYCQHHYSAPWTFGGGTKVEIKRTVAAPSVFIFPPSDEQLKSGTASVVCLLNNFYPREAKVQWKVDNALQSGNSQESVTEQDSKDSTYSLSSTLTLSKADYEKHKVYACEVTHQGLSSPVTKSFNRGEC
notes: also called hu08/L443C/K392C; L443C/K392C
IC50 [3]: 2.1 nM
EC50 [4]: 0.09 nM

B14: hu08v1.0/1.0-L443C/A111C (antibody)
heavy: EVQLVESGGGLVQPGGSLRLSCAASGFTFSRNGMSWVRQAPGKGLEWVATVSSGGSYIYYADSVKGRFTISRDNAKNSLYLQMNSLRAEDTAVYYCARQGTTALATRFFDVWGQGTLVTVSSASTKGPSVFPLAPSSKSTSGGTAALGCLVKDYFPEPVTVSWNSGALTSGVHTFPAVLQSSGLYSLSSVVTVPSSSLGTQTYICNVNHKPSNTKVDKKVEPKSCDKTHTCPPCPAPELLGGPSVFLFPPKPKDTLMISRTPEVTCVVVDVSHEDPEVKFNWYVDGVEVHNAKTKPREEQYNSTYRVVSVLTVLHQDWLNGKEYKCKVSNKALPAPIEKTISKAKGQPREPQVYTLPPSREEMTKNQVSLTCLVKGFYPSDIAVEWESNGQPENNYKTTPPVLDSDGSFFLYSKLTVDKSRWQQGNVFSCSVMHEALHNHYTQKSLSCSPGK
light: DIQMTQSPSSLSASVGDRVTITCKASQDVGTAVAWYQQKPGKAPKLLIYSASYRSTGVPSRFSGSGSGTDFTLTISSLQPEDFATYYCQHHYSAPWTFGGGTKVEIKRTVACPSVFIFPPSDEQLKSGTASVVCLLNNFYPREAKVQWKVDNALQSGNSQESVTEQDSKDSTYSLSSTLTLSKADYEKHKVYACEVTHQGLSSPVTKSFNRGEC
notes: also called hu08/L443C/kA111C; L443C/kA111C
IC50 [3]: 2.32 nM
EC50 [4]: 0.12 nM

B15: hu07 heavy chain v1.5 paired with chimeric light chain (antibody, V domains shown)
VH: EVQLVESGGGLVQPGGSLRLSCAASGFSLTKYGVHWVRQAPGKGLEWVGVKWAGGSTDYNSALMSRFTISKDNAKNSLYLQMNSLRAEDTAVYYCARDHRDAMDYWGQGTLVTVSS
VL: QVVLTQSPAIMSASPGERVTMTCTASLSVSSTYLHWYHQKPGSSPKLWIYSTSNLASGVPARFSGSGSGTSYSLTISSMEAEDAATYYCHQYHRSPLTFGSGTKLELK
notes: hIgG1 constant region; the chimeric light chain is the mu07 VL with human kappa constant region; also called hu07v1.5/kc; hu07 v1.5 paired with chimeric light chain Kc
EC50 [5]: 0.183 nM
IC50 [6]: 3.03 nM

B16: hu07 heavy chain v1.5 / light chain v1.1 (antibody, IgG1, V domains shown)
VH: EVQLVESGGGLVQPGGSLRLSCAASGFSLTKYGVHWVRQAPGKGLEWVGVKWAGGSTDYNSALMSRFTISKDNAKNSLYLQMNSLRAEDTAVYYCARDHRDAMDYWGQGTLVTVSS
VL: DIQMTQSPSSLSASVGDRVTITCTASLSVSSTYLHWYQQKPGSSPKLLIYSTSNLASGVPSRFSGSGSGTSFTLTISSLQPEDFATYYCHQYHRSPLTFGGGTKVEIK
notes: hIgG1 constant region and hIg Kappa constant region; also called hu07v1.5/v1.1
EC50 [5]: 1.21 nM
IC50 [6]: 46.6 nM
